The text below walks through data of paper PMC4297517 (Journal of molecular biology, 2014).

The target in this experiment is ClpB_(E279A,E678A) (E. coli, UniProt P63284 1-857, E279A | E678A). The experiment is described as follows: fluorescence polarisation. Background: Polarisation of emitted light reports the rotation of a fluorescent probe.

B1: DnaK_(py-N282A*) (natural protein)
chain: not shown
modifications: N-(1-pyrene)maleimide label (K106C introduced for labeling); degree of labeling between 0.1 and 0.5
Turning to B1, the binding result is reported as “binds”.

B2: DnaK_(py-Q57A*) (natural protein)
chain: not shown
modifications: N-(1-pyrene)maleimide label (K106C introduced for labeling); degree of labeling between 0.1 and 0.5
As to B2, the binding result is “binds”.
